Substitutions are numbered along the chain they refer to. In names and notes the source's numbering stands.
Assays:
DLD1 C5 tumor xenografts = assay: DLD1 C5 mouse xenograft tumor model; type: in vivo; conditions: saline-treated, then irinotecan treated animals (20 mg/kg, M and Th)
Procedure: Female athymic nude mice age 6- to 7-weeks old are available commercially, including from Harlan Laboratories (Indianapolis, Ind.). The mice are allowed to acclimate for one week and fed ad libitum on a normal low fat (4.5%) diet, which may be continued for the duration of the study. Tumor cells are available for purchase from ATCC and may be cultured in cell culture media such as RPMI 1640 (Life Technologies) with L-glutamine, 25 mM HEPES supplemented with 10% FBS and 1 mM Na Pyruvate. Cells may be detached, washed with serum free medium and then resuspended at a final concentration of 50×10^6 cells/mL in serum free RPMI 1640. Tumor cells, approximately 5×106 may be injected subcutaneously in the rear flank of subject mice in a 1:1 mixture of serum free growth medium and Matrigel (Becton Dickinson, Bedford, Mass.). Tumor and body weight measurements may be performed twice weekly. Prior to treatment, mice can be randomized based on tumor size using a randomization algorithm. Treatments may be started when the average tumor volume reaches 100 mm3. […]
All test or control proteins are prepared in phosphate Buffered Saline (PBS) prior to dose. Tumor size may be determined by caliper measurements. […] Log volume data can be analyzed with two-way repeated measures ANOVA by time and treatment using SAS PROC MIXED software (SAS Institutes Inc, Cary, N.C.). […]

[1] = Thermal unfolding assay (circular dichroism); type: physicochemical; conditions: CD at 208 nm; 10 mM citrate, 300 mM NaCl, pH 7.4
Procedure: The effect of temperature on the conformational stability of human BMP7 protein variants may be followed by circular dichroism (CD) on a Jasco J-810 instrument equipped with a thermoelectric sample compartment. Briefly stated, 0.2-1.0 mg/mL pro-BMP7 may be formulated in storage buffer (10 mM citrate, 300 mM NaCl, pH 7.4) and loaded into a 0.02 cm path-length CD cuvette. The sample may be heated from 20 to 80° C. at a linear rate of 1° C./minute and the resulting CD signal at 208 nm may be recorded every 0.2° C. using a 1 second signal response time. A non-linear fit to equation 1 may be performed by the program JMP (SAS Institute Inc, Cary, N.C.) to obtain the thermal unfolding mid-point (Tm).
[formula] where, Yu and Yf are fit and represent the Y-intercept of the pre- and post-transition baselines, respectively. Mu and Mf are fit and represent the slope of the pre- and post-transition baselines, respectively. Hm and S are fit and represent enthalpy and entropy, respectively. T is the measured temperature in Kelvin units.

RAR alpha = RAR alpha protein expression, Western Blot; type: cell-based, mouse; conditions: MFc7 and 3T3-L1 cell lines; 1 μg/mL, 48 hours; Western Blot intensity
Procedure: (§1) 3T3-L1 fibroblasts and MFc7 mouse renal myofibroblasts may be maintained under routine cell culture conditions in DMEM/10% calf serum medium or OPTI-MEM/10% FBS medium, respectively. The cells may be plated in 10 cm tissue culture plates at a seeding density of 500,000 cells/plate. After 48 hours, the cells may be washed with PBS prior to the addition of either DMEM/2% dialyzed FBS or OPTI-MEM/2% dialyzed FBS medium containing 1 μg/mL human BMP7 protein or 1 μg/mL of a human BMP7 protein variant. The cells may be incubated for 48 hours and then rinsed with ice-cold PBS, and then lysed with Protein Extraction Reagent. Then lysates may be centrifuged at 14,000×g for 15 minutes. A Bradford protein assay may be performed to determine the protein concentration of each lysate. Equivalent amounts of protein (for example, 25 μg) may be resolved by SDS-PAGE and then transferred to nitrocellulose membranes for Western Blot analysis. The membranes may be probed with an anti-RAR alpha antibody and/or an anti-RAR gamma antibody.

RAR gamma = RAR gamma protein expression, Western Blot; type: cell-based, mouse; conditions: MFc7 and 3T3-L1 cell lines; 1 μg/mL, 48 hours; Western Blot intensity
Procedure: as §1

[2] = test system: MFc7 mouse renal myofibroblasts; assay: MFc7 bioassay; type: cell-based; conditions: EC50 of wild type BMP7 protein/EC50 of the variant
Procedure: MFc7 mouse renal myofibroblasts (mouse kidney fibroblast cell line) may be maintained under routine cell culture conditions in OPTI-MEM/10% FBS medium. The cells may be plated in 10 cm tissue culture plates at a seeding density of 500,000 cells/plate. After approximately 48 hours, the cells may be washed with phosphate buffered saline (PBS) prior to the addition of OPTI-MEM/2% dialyzed fetal bovine serum (FBS) medium containing 1 μg/ml BMP7 protein or 1 μg/ml of a BMP7 protein variant and incubated for 48 hours. After treatment the cells may be rinsed with PBS and stored at −80° C. for 20 minutes. After thawing the cells at 37° C. for 30 minutes 100 μl of para-nitrophenyl phosphate (PNPP) may be added. The plate may be incubated at 37° C. for 1 hour. The absorbance at 405 nm may be read utilizing a plate reader. The average relative potency (EC50 of wild type BMP7 protein/EC50 of the BMP7 protein variant) of certain human BMP7 protein variants of the present invention may be calculated based on such readings.

[3] = test system: female CB17SC-M SCID mice; assay: Ectopic bone formation model; type: in vivo; conditions: 3 μg/100 μl subcutaneous; CT scan on Day 13
Procedure: Ectopic bone formation (EBF) may be measured in female CB17SC-M SCID mice upon subcutaneous administration of certain human BMP7 protein variants of the present invention compared to wild type human mature BMP7.
Briefly described, the mice may be anesthetized with 3% isoflurane and are injected with 3 μg/100 μl of the human BMP7 protein variant, wild type human mature BMP7 protein or a vehicle control on the back left flank. The back right flank of each mouse may serve as a control (no injection). Vehicle (pH 4.5): 0.5% Sucrose, 2.5% Glycine, 5 mM L-Glutamic Acid, 5 mM NaCl, 0.01% polysorbate 80, and, 0.1% BSA.
EBF may be measured by a CT scan on Day 13 after injection of the human BMP7 protein variant or wild type human mature BMP7 protein.

[4] = single amino acid change (Table 4)

For `CCc1c2c(nc3ccc(OC(=O)N4CCC(N5CCCCC5)CC4)cc13)-c1cc3c(c(=O)n1C2)COC(=O)[C@]3(O)CC` [irinotecan, reference compound], the tumor response (DLD1 C5 tumor xenografts) was “tumor growth”.

With “human pro-BMP7 protein variant V114M: human pro-BMP7 protein variant with V114M in the mature domain” the “thermal unfolding mid-point (Tm)” value [1] was 64.5 °C.

B1: human BMP7 protein: wild type human BMP7 protein of Example 2; pro or mature form not stated (protein, UniProt P18075 293-431, looked up)
Bone morphogenetic protein 7: STGSKQRSQNRSKTPKNQEALRMANVAENSSSDQRQACKKHELYVSFRDLGWQDWIIAPEGYAAYYCEGECAFPLNSYMNATNHAIVQTLVHFINPETVPKPCCAPTQLNAISVLYFDDSSNVILKKYRNMVVRACGCH
With B1 the “RAR alpha protein expression” value (RAR alpha) was “stimulated” and the “RAR gamma protein expression” value (RAR gamma) was “stimulated”.

B2: A37P: SEQ ID NO: 2 having the single amino acid mutation A37P (protein, listed as Homo sapiens)
chain: B1 Bone morphogenetic protein 7 with A37P
In the case of B2, the “Average Relative Potency” value [2, 4] is reported as 7.5.

B3: Y65G: SEQ ID NO: 2 having the single amino acid mutation Y65G (protein, listed as Homo sapiens)
chain: B1 Bone morphogenetic protein 7 with Y65G
With B3 the “Average Relative Potency” value [2, 4] was 1.3.

B4: Y65G/I86L/N110G/Y128W: human mature BMP7 protein variant, SEQ ID NO: 7 (protein)
chain: B1 Bone morphogenetic protein 7 with Y65G, I86L, N110G, Y128W
With B4 the “Average Relative Potency” value ([2]; multiple amino acid changes (Table 3)) was 16 and the “Ectopic Bone Formation Volume” value [3] was 11 mm^3.

B5: D33M: SEQ ID NO: 2 having the single amino acid mutation D33M (protein, listed as Homo sapiens)
chain: B1 Bone morphogenetic protein 7 with D33M
In the case of B5, the “Average Relative Potency” value [2, 4] is reported as 3.3.

B6: E60Q: SEQ ID NO: 2 having the single amino acid mutation E60Q (protein, listed as Homo sapiens)
chain: B1 Bone morphogenetic protein 7 with E60Q
For B6, the “Average Relative Potency” value [2, 4] was 5.5.

— patent publication US11466066B2, “Variants of human BMP7 protein” (ELI LILLY AND COMPANY, priority 2017, dated 2022)
